Molecular target: TolB construct MV37 (TolB Δ1–22) (E. coli) (UniProt P0A855)
Assay: SPR

| Kd [µM] | Substance |
| --- | --- |
| 4.1 | TolAIII construct YZ48 (wild-type TolAIII) (domain or fragment) |
| 23.6 | TolAIII construct YZ74 (TolAIII Y352H,V407E) (domain or fragment) |
